Measurements: paper PMC3902040

Target: Factor H (CFH) (human) (UniProt P08603)
Test: SPR

Chain of UniProt P08603 (P08603 19-1231): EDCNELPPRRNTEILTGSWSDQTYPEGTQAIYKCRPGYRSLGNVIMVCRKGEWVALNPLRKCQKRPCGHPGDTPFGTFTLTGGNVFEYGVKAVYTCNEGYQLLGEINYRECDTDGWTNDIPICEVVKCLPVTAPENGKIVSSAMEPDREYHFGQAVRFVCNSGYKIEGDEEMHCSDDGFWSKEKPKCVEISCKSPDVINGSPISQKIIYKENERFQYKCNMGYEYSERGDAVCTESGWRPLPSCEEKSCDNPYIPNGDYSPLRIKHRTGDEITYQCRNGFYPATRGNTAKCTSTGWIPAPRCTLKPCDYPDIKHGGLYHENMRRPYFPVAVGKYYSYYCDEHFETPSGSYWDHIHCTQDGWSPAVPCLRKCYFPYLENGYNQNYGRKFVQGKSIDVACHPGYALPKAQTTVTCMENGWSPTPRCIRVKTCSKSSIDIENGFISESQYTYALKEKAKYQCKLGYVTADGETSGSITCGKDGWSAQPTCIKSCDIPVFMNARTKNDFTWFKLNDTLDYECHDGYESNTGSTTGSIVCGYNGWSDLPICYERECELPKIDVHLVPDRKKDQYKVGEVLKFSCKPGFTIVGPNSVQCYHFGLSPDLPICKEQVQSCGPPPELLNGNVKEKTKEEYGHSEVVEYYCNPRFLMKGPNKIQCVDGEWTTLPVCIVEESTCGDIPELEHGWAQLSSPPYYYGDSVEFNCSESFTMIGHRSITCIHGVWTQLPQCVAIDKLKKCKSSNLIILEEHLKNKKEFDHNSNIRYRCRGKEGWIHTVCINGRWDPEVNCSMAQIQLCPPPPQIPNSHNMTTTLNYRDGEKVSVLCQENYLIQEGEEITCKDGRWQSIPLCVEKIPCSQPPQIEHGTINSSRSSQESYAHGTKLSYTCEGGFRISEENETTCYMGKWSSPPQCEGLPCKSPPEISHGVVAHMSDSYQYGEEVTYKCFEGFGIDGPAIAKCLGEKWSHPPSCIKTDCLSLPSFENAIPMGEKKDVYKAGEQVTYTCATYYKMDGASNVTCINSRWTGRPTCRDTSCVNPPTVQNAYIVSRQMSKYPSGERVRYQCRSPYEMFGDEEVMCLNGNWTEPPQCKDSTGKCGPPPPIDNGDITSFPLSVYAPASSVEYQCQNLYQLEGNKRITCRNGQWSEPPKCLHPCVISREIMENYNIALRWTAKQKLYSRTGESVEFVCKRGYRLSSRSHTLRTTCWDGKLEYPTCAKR

- reduced binding against 155K C3 (percent): 60%
Substance: 155Q C3 protein (C3 K155Q variant, rs147859257), methylamine-treated C3 (MA) (natural protein)
